The values below come from article PMC9944321.

The target of experiment [1] is deuterated green fluorescent protein [GFP: P42212]. The experiment is described as follows: small-angle neutron scattering (SANS); free protein in solution, about 5 mg/mL in Tris-buffer, h-GFP in D2O and d-GFP in H2O, 2-mm quartz cells, ambient conditions; Rg, P(r) and DAMMIF ab initio reconstruction.
Experiment [2] has as its target hydrogenated green fluorescent protein [GFP: P42212]. The experiment is described as above.

As a reminder, the stoichiometry N is the number of molecules, sites or subunits per partner or assembly.

“deuterated green fluorescent protein (from UniProt P42212 2-238) (natural protein)” had a stoichiometry N in experiment [1] of 2.

In experiment [2], “hydrogenated green fluorescent protein (from UniProt P42212 2-238) (natural protein)” came in with a stoichiometry N of 2.
